# Patent US20200181261A1 (Bayer, published 2020)
# T1: human CEACAM6, full-length, on cells (human, UniProt P40199 35-320)
# T1 construct: used both for transfected HeLa cells and for tumor cell lines that express CEACAM6 endogenously; also called TPP-4639; HeLa human CEACAM6
# T1 sequence: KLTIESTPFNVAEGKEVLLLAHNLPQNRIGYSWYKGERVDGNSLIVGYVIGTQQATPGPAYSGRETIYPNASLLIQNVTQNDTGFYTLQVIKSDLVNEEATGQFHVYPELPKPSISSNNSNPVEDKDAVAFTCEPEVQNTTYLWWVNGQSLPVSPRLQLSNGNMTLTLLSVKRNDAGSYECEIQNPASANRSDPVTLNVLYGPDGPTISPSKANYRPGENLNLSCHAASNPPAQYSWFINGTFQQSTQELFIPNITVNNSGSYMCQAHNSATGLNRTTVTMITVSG
# T2: human CEACAM1, full-length, on transfected HeLa cells (human, UniProt P13688 35-526)
# T2 construct: also called TPP-4185; HeLa human CEACAM1
# T2 sequence: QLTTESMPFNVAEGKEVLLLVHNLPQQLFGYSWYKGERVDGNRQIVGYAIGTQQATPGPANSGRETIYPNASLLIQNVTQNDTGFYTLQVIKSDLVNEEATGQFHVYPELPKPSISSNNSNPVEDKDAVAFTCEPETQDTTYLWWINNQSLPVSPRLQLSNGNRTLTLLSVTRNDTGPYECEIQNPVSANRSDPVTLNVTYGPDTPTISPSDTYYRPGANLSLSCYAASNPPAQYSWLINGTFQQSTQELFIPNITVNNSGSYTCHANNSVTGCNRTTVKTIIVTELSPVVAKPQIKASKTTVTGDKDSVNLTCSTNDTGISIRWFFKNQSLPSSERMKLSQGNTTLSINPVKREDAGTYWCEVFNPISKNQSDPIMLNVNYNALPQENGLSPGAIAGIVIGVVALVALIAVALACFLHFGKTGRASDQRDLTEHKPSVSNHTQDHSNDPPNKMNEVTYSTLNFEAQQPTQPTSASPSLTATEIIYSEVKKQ
# T3: human CEACAM5, full-length, on transfected HeLa cells (human, UniProt P06731 35-685, GPI anchor at the C-terminus on the cell surface, not carried by the letters)
# T3 construct: also called TPP-4188; HeLa human CEACAM5
# T3 sequence: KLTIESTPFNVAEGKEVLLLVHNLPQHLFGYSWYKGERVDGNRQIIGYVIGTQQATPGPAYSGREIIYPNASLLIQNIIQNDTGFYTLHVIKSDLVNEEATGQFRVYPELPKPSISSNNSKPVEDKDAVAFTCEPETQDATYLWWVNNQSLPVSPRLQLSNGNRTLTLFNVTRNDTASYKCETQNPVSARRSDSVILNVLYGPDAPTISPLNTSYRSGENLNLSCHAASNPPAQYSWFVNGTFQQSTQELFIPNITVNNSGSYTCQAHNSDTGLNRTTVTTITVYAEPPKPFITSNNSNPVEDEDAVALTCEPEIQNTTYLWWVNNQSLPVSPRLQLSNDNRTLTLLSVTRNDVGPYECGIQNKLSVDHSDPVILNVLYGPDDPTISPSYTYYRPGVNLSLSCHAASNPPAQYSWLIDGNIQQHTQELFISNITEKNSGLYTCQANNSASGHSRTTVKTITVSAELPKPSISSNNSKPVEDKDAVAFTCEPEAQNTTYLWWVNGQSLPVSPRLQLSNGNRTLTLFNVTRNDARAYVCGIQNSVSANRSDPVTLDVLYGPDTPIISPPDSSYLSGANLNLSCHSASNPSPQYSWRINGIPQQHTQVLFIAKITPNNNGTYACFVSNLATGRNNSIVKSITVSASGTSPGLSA
# T4: human CEACAM8, full-length, on transfected HeLa cells (human, UniProt P31997 35-320)
# T4 construct: also called TPP-4190; HeLa human CEACAM8
# T4 sequence: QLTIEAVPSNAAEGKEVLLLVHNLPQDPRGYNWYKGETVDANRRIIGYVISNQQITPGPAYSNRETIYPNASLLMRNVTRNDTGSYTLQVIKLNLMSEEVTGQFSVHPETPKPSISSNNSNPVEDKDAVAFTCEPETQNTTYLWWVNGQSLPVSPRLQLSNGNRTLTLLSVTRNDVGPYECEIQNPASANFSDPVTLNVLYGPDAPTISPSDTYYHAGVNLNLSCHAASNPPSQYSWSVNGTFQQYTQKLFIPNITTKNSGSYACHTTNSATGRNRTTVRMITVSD
# T5: human CEACAM3, full-length, on transfected HeLa cells (human, UniProt P40198 35-252)
# T5 construct: also called TPP-4187; HeLa human CEACAM3
# T5 sequence: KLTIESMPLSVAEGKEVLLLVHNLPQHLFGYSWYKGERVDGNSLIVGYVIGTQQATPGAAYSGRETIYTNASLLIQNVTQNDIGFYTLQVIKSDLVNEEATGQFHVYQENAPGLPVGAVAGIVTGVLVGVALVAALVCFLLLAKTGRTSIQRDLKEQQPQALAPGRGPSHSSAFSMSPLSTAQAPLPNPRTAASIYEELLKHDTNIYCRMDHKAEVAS
# Columns and labels:
# Experiment in all cases: FACS, transfected HeLa cells
# [1] = target: T1, human CEACAM6, full-length, on cells
# Method: (§1) For FACS experiments HeLa wild type cells were cultured in RPMI-1640, 10% FCS, while CEACAM-receptor transfected HeLa cells received in addition 0.5% Gentamycin (stock 10 mg/ml, Fa. PAA) and 200 μg/ml Hygromycin B (stock 50 mg/ml, Invitrogen). Cells were washed 3 times with PBS w/o Ca²⁺/Mg²⁺ and were detached from the culture plate non-enzymatically with EDTA dissociation buffer (Gibco). Cells were washed in cold FACS buffer (PBS w/o Ca²⁺/Mg²⁺ and heat-inactivated 3% FCS) and were counted using a countess machine (Invitrogen). 10⁵ cells per well were plated and incubated with the respective primary antibody (5 μg/ml) for 1 h at 4° C. on a plate shaker. […] After 2 times washing the cells were resuspended in 100 μl FACS buffer and were analysed on a FACS Canto II machine (Beckton Dickinson) or a FACS Array (Beckton Dickinson).
# (§2) For EC₅₀ analysis, the primary antibodies were used at increasing concentrations in a range from 0.1 nM to 100 nM. Half maximal binding values (EC₅₀) were determined by plotting the median fluorescence intensity signal against the concentration (logarithmic scale). Curve fitting of data was performed using the Graph Pad prism analysis software.
# [2] = target: T2, human CEACAM1, full-length, on …
# Method: as §1, §2
# [3] = target: T3, human CEACAM5, full-length, on …
# Method: as §1, §2
# [4] = target: T4, human CEACAM8, full-length, on …
# Method: as §1, §2
# [5] = target: T5, human CEACAM3, full-length, on …
# Method: as §1, §2
Binder,EC50 [1] [nM],binding result [2],binding result [3],binding result [4],binding result [5],FACS median fluorescence [1] [medianfluorescence],FACS median fluorescence [2] [medianfluorescence]
"TPP-3821 (antibody, human IgG2, kappa, V domains shown, humanized from TPP-3187, human IgG2; also called 3187HU2-hIgG2Kappa) VH: QVTLRESGPALVKPTQTLTLTCTFSGFSLSTYGIGVGWIRQPPGKALEWLAHIWWNDNKYYSTSLKTRLTISKDTSKNQVVLTMTNMDPVDTATYYCARISLPYFDYWGQGTLVTVSS VL: DIQLTQSPSFLSASVGDRVTITCKASQNVGTAVAWYQQKPGKAPKLLIYSASNRYTGVPSRFSGSGSGTEFTLTISSLQPEDFATYYCQQYNNYPLTFGGGTKVEIKR",1,no binding (tested: 5 µg/ml),no binding (tested: 5 µg/ml),no binding (tested: 5 µg/ml),no binding (tested: 5 µg/ml),–,–
"TPP-3707 (antibody, human IgG2, kappa, V domains shown, also called 090E-M007-A09-Mat2-hIgG2-hIgG2Kappa) VH: EVQLVESGGGLVQPGGSLRLSCAASGFTFSLYQMHWVRQAPGKGLEWVSWISFSGGNTGYADSVKGRFTISRDNSKNTLYLQMNSLRAEDTAVYYCARATGYSSPWYLDPWGQGTLVTVSS VL: DIQMTQSPSSLSASVGDRVTITCQASHEIDNYLNWYQQKPGKAPKLLIYDAYWSKTGVPSRFSGSGSGTDFTLTISSLQPEDIATYYCQGYDDLSVTFGGGTKVDIKR",19,–,no binding (tested: 5 µg/ml),no binding (tested: 5 µg/ml),–,1000 to 10000,10 to 100
"TPP-2971 (antibody, mouse IgG1, V domains shown, murine hybridoma antibody, mouse IgG1; also called 792.15H12C9) VH: QVTLKESGPGILQPSQTLSLTCSFSGFSLSTYGIGVGWIRQPSGKDLEWLAHIWWNDNKYYNTALKSRLTISKDTSNNQVFLKIASVDTADTATYYCARISLPYFDYWGQGTTLTVSS VL: DIVMTQSQKFMSTSVGDRVSITCKASQNVGTAVAWYQQKPGQSPKLLIYSASNRYTGVPDRFTGSGSGTDFTLTISNMQSEDLADYFCQQYSSYPLTFGAGTKLELK",0.5,no binding (tested: 5 µg/ml),no binding (tested: 5 µg/ml),no binding (tested: 5 µg/ml),no binding (tested: 5 µg/ml),10 to 100,–

# Continued, values first:
EC50 [1] [nM],binding result [2],binding result [3],binding result [4],binding result [5],FACS median fluorescence [1] [medianfluorescence],FACS median fluorescence [2] [medianfluorescence],Binder
1,no binding (tested: 5 µg/ml),no binding (tested: 5 µg/ml),no binding (tested: 5 µg/ml),no binding (tested: 5 µg/ml),–,–,"TPP-3820 (antibody, human IgG2, kappa, V domains shown, humanized from TPP-3187, human IgG2; also called 3187HU1-hIgG2Kappa) VH: QVTLRESGPALVKPTQTLTLTCTFSGFSLTTYGIGVGWIRQPPGKGLEWLAHIWWNDNKYYSTSLKTRLTISKDTSKNQVVLTMTNMDPVDTATYYCARISLPYFDYWGQGTLVTVSS VL: DIQLTQSPSFLSASVGDRVTITCKASQNVGTAVAWYQQKPGKAPKLLIYSASNRYTGVPSRFSGSGSGTEFTLTISSLQPEDFATYYCQQYNNYPLTFGGGTKVEIKR"
0.6,no binding (tested: 5 µg/ml),no binding (tested: 5 µg/ml),no binding (tested: 5 µg/ml),no binding (tested: 5 µg/ml),–,–,"TPP-3310 (antibody, human IgG2, kappa, humanized from TPP-2971, human IgG2; also called TPP-2971HU1-hIgG2Kappa) heavy: QVTLRESGPALVKPTQTLTLTCTFSGFSLSTYGIGVGWIRQPPGKALEWLAHIWWNDNKYYSTSLKTRLTISKDTSKNQVVLTMTNMDPVDTATYYCARISLPYFDYWGQGTTLTVSSASTKGPSVFPLAPCSRSTSESTAALGCLVKDYFPEPVTVSWNSGALTSGVHTFPAVLQSSGLYSLSSVVTVPSSNFGTQTYTCNVDHKPSNTKVDKTVERKCCVECPPCPAPPVAGPSVFLFPPKPKDTLMISRTPEVTCVVVDVSHEDPEVQFNWYVDGVEVHNAKTKPREEQFNSTFRVVSVLTVVHQDWLNGKEYKCKVSNKGLPAPIEKTISKTKGQPREPQVYTLPPSREEMTKNQVSLTCLVKGFYPSDIAVEWESNGQPENNYKTTPPMLDSDGSFFLYSKLTVDKSRWQQGNVFSCSVMHEALHNHYTQKSLSLSPG light: DIQLTQSPSFLSASVGDRVTITCKASQNVGTAVAWYQQKPGKAPKLLIYSASNRYTGVPSRFSGSGSGTEFTLTISSLQPEDFATYYCQQYSSYPLTFGGGTKVEIKRTVAAPSVFIFPPSDEQLKSGTASVVCLLNNFYPREAKVQWKVDNALQSGNSQESVTEQDSKDSTYSLSSTLTLSKADYEKHKVYACEVTHQGLSSPVTKSFNRGEC"
0.35,no binding (tested: 5 µg/ml),no binding (tested: 5 µg/ml),no binding (tested: 5 µg/ml),no binding (tested: 5 µg/ml),100 to 1000,–,"TPP-3187 (antibody, mouse IgG1, V domains shown, murine hybridoma antibody, mouse IgG1; also called 792.15C4F4) VH: QVTLKESGPGILQPSQTLSLTCSFSGFSLTTYGIGVGWIRQPSGKGLEWLAHIWWNDNKYYNTALKSRLTISKDTSNNQVFLKIASVDTADTATYYCARISLPYFDYWGQGTTLTVSS VL: DIVMTQSQKFMSTSVGDRVSITCKASQNVGTAVAWYQQKPGQSPKLLIYSASNRYTGVPDRFTGSGSGTDFTLTISNMQSEDLADYFCQQYNNYPLTFGAGTKLELK"
